Results on 16 molecules are retold here after US20240270821A1, “GIP/GLP1/GCG TRI-RECEPTOR AGONISTS AND USES THEREOF” (priority 2023, published 2024).

Holding throughout (assay): cell-based or functional assay
One assay concerns the target hGLP-1R (Homo sapiens, UniProt P43220).
For assay [1], the target named is human glucagon receptor (human) (UniProt P47871).
Assay [2] concerns the target T1, human GIP receptor (human) (UniProt P48546).
T1 sequence (looked up): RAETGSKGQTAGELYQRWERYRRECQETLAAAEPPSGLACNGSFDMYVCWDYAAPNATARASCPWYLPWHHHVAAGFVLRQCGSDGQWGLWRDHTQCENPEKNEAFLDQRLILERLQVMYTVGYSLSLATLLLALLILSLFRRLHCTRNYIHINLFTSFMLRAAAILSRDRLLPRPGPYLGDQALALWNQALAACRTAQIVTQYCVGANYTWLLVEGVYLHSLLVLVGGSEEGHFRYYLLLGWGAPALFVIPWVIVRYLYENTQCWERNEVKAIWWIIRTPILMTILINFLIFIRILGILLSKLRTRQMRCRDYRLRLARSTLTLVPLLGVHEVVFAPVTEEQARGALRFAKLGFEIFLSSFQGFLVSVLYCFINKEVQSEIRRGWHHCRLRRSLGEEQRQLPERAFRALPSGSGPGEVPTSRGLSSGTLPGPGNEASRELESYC

Starred links: 1 amine or outer side, 2 acyl side, 3 side chain; linkers in the order of their positions; H or OH if unused. Non-standard residues stand in square brackets, D forms with d. Groups on a side chain read outwards from the residue. No end group written: not given here. *: point of attachment. C18 diacid = O=C(O)CCCCCCCCCCCCCCCCC(=O)*; γGlu = O=C(O)[C@H](CCC(=O)[*:2])N[*:1]; αMeL = CC(C)C[C@](C)(N)C(=O)O; Dap = NC[C@H](N)C(=O)O; Aib = CC(C)(N)C(=O)O

Sequence of hGLP-1R (P43220 24-463): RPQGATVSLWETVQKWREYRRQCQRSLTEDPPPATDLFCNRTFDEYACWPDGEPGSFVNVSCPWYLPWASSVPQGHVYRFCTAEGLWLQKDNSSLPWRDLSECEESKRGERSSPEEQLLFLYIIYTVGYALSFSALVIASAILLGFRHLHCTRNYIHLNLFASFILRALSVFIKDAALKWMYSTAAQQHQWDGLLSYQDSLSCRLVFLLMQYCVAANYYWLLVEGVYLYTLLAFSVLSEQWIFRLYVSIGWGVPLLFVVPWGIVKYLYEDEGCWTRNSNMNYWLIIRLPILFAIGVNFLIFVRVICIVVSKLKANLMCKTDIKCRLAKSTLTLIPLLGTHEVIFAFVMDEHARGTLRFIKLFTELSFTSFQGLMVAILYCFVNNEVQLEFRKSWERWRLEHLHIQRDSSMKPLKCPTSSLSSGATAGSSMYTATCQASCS
Sequence of human glucagon receptor (human) (P47871 26-477): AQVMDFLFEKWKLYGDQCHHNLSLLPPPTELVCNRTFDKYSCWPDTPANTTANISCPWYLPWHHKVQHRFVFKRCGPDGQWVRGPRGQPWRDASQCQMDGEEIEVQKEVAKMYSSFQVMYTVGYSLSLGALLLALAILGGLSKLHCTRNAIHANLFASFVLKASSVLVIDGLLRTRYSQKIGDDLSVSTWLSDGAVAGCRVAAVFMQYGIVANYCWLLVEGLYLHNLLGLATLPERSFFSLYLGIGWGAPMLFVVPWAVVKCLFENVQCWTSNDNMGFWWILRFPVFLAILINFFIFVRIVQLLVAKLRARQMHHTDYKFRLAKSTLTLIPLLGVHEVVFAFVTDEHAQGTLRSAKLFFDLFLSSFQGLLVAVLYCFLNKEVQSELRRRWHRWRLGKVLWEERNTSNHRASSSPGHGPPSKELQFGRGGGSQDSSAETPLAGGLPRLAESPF

For the molecule Y[Aib]QGTFTSDFS[Dap][αMeL]LDKK([γGlu-γGlu-C18 diacid])AQ[Aib]AFIEYLLE[Aib]GPSSGAPPPSGS-NH2 [Example 203], the cAMP Rel EC50, nM (1% HSA) was 532 nM in the assay with hGLP-1R, 1160 nM in assay [1] and 19 nM in assay [2].

B1: Example 196 (peptide)
chain: YXQGTFTSDFSXXLDKKAQXAFIEYLLEGGPSSGAPPPGGS
modifications: not fully specified; free C-terminus (not amidated); synthetic construct; SITE 2: note = 2-Aminoisobutyric Acid; SITE 12: note = L-ornithine; SITE 13: note = alpha-methyl-leucine; SITE 17: note = Lysine is chemically modified through conjugation of the epsilon-amino group of the Lysine side chain with (2-[2-(2-Amino-ethoxy)-ethoxy]-acetyl)-(gamma-Glu)
Turning to B1, the results for the cAMP Rel EC50, nM (1% HSA) (with hGLP-1R; in assay [1]; in assay [2]) were 458 nM, 620 nM and 51.4 nM, respectively.

B2: Example 872 (peptide)
chain: YXQGTFTSDXSQXLDKKAQXAFIEWLIEGGPSSGAPPPSGS
modifications: synthetic construct; SITE 2: note = 2-Aminoisobutyric Acid; SITE 10: note = 3-(4-Pyridyl)-L-alanine; SITE 13: note = alpha-methyl-leucine; SITE 17: note = Lysine is chemically modified through conjugation of the epsilon-amino group of the Lysine side chain with (gamma-Glu)2-CO-(CH2)16-CO2H; SITE 20:
On to B2, for which the Relative cAMP EC50 is 1.01 nM with hGLP-1R, 4.18 nM in assay [1] and 0.205 nM in assay [2].

B3: Example 938 (peptide)
chain: YXQGTFTSDXSQXLDKKAQXAFIEXLLEGGPSSGAPPPSGS
modifications: synthetic construct; SITE 2: note = 2-Aminoisobutyric Acid; SITE 10: note = 3-(4-Pyridyl)-L-alanine; SITE 13: note = alpha-methyl-leucine; SITE 17: note = Lysine is chemically modified through conjugation of the epsilon-amino group of the Lysine side chain with (gamma-Glu)2-CO-(CH2)16-CO2H; SITE 20:
Regarding B3, the figures for the Relative cAMP EC50 (with hGLP-1R; in assay [1]; in assay [2]) were 1.84 nM, 13.3 nM and 0.13 nM, respectively.

B4: Example 876 (peptide)
chain: YXQGTFTSDFSQXLDKKAQXAFIEYLIAGGPSSGAPPPSGS
modifications: not fully specified; synthetic construct; SITE 2: note = 2-Aminoisobutyric Acid; SITE 13: note = alpha-methyl-leucine; SITE 17: note = Lysine is chemically modified through conjugation of the epsilon-amino group of the Lysine side chain with (gamma-Glu)2-CO-(CH2)16-CO2H; SITE 20: note = 3-(4-Pyridyl)-L-alanine; SITE 41:
As to B4, the figures for the Relative cAMP EC50 (with hGLP-1R; in assay [1]; in assay [2]) were 0.456 nM, 3.28 nM and 0.053 nM, respectively.

B5: Example 941 (peptide)
chain: YXQGTFTSDXSXXLDKKAQXAFIEXLIEGGPSSGAPPPSGS
modifications: synthetic construct; SITE 2: note = 2-Aminoisobutyric Acid; SITE 10: note = 3-(4-Pyridyl)-L-alanine; SITE 12: note = L-ornithine; SITE 13: note = alpha-methyl-leucine; SITE 17: note = Lysine is chemically modified through conjugation of the epsilon-amino group of the Lysine side chain with (gamma-Gl)
Consider B5, for which the Relative cAMP EC50 turned out to be 0.764 nM with hGLP-1R, 11.7 nM in assay [1] and 0.183 nM in assay [2].

B6: Example 841 (peptide)
chain: YXQGTFTSDFSQXLDKKAQXAFIEXLIEGGPSSGAPPPSGS
modifications: synthetic construct; SITE 2: note = 2-Aminoisobutyric Acid; SITE 13: note = alpha-methyl-leucine; SITE 17: note = Lysine is chemically modified through conjugation of the epsilon-amino group of the Lysine side chain with (2-[2-(2-Amino-ethoxy)-ethoxy]-acetyl)-(gamma-Glu)-CO-(CH2) 16-CO2H; SITE 20: n
Consider B6, for which the Relative cAMP EC50 in the assay with hGLP-1R was 0.336 nM; in assay [1] it was 9.71 nM; in assay [2], 0.194 nM.

B7: Example 875 (peptide)
chain: YXQGTFTSDFSQXLDKKAQXAFIEYLIAGGPSSGAPPPSGS
modifications: synthetic construct; SITE 2: note = 2-Aminoisobutyric Acid; SITE 13: note = alpha-methyl-leucine; SITE 17: note = Lysine is chemically modified through conjugation of the epsilon-amino group of the Lysine side chain with (2-[2-(2-Amino-ethoxy)-ethoxy]-acetyl)-(gamma-Glu)-CO-(CH2) 16-CO2H; SITE 20: n
As for B7, the results for the Relative cAMP EC50 (with hGLP-1R; in assay [1]; in assay [2]) were 0.771 nM, 3.65 nM and 0.101 nM, respectively.

B8: Example 942 (peptide)
chain: YXQGTFTSDXSXXLDKKAQXAFIEXLLEGGPSSGAPPPSGS
modifications: synthetic construct; SITE 2: note = 2-Aminoisobutyric Acid; SITE 10: note = 3-(4-Pyridyl)-L-alanine; SITE 12: note = L-ornithine; SITE 13: note = alpha-methyl-leucine; SITE 17: note = Lysine is chemically modified through conjugation of the epsilon-amino group of the Lysine side chain with (gamma-Gl)
With B8, the figures for the Relative cAMP EC50 (in the assay with hGLP-1R; in assay [1]; in assay [2]) were 3.52 nM, 6.32 nM and 0.188 nM, respectively.

B9: Example 661 (SEQ ID NO: 667) (peptide)
chain: YXQGTXTSDXSILLDKKAQXAFIEYLXEGGPSSGAPPPSGTGE
modifications: synthetic construct; SITE 2: note = 2-Aminoisobutyric Acid; SITE 6: note = alpha-methyl-2-fluoro-L-phenylalanine; SITE 10: note = 3-(4-Pyridyl)-L-alanine; SITE 17: note = Lysine is chemically modified through conjugation of the epsilon-amino group of the Lysine side chain with (gamma-Glu)2-CO-(CH2)1
In the case of B9, the values for the Relative cAMP EC50 (with hGLP-1R; in assay [1]; in assay [2]) were 1.13 nM, 1.78 nM and 0.0665 nM, respectively.

B10: Example 674 (SEQ ID NO: 680) (peptide)
chain: YXQGTXTSDXSILLDXKAQXXFIEXLEEGGPSSGAPPPSGTGE
modifications: synthetic construct; SITE 2: note = 2-Aminoisobutyric Acid; SITE 6: note = alpha-methyl-2-fluoro-L-phenylalanine; SITE 10: note = 3-(4-Pyridyl)-L-alanine; SITE 16: note = L-ornithine; SITE 17: note = Lysine is chemically modified through conjugation of the epsilon-amino group of the Lysine side chai
In the case of B10, the Relative cAMP EC50 with hGLP-1R was determined as 0.21 nM; in assay [1] it was 2.09 nM; in assay [2], 0.0264 nM.

B11: Example 664 (SEQ ID NO: 670) (peptide)
chain: YXQGTXTSDXSILLDKKAQXAFIEXLEEGGPSSGAPPPSGTGE
modifications: synthetic construct; SITE 2: note = 2-Aminoisobutyric Acid; SITE 6: note = alpha-methyl-2-fluoro-L-phenylalanine; SITE 10: note = 3-(4-Pyridyl)-L-alanine; SITE 17: note = Lysine is chemically modified through conjugation of the epsilon-amino group of the Lysine side chain with (gamma-Glu)2-CO-(CH2)1
Turning to B11, the Relative cAMP EC50 is 0.356 nM with hGLP-1R, 2.12 nM in assay [1] and 0.0159 nM in assay [2].

B12: Example 662 (SEQ ID NO: 668) (peptide)
chain: YXQGTXTSDXSILLDKKAQXAFIEYLEEGGPSSGAPPPSGTGE
modifications: synthetic construct; SITE 2: note = 2-Aminoisobutyric Acid; SITE 6: note = alpha-methyl-2-fluoro-L-phenylalanine; SITE 10: note = 3-(4-Pyridyl)-L-alanine; SITE 17: note = Lysine is chemically modified through conjugation of the epsilon-amino group of the Lysine side chain with (2-[2-(2-Amino-ethoxy))
Regarding B12, the figures for the Relative cAMP EC50 (with hGLP-1R; in assay [1]; in assay [2]) were 0.946 nM, 4.81 nM and 0.0704 nM, respectively.

B13: Example 669 (SEQ ID NO: 675) (peptide)
chain: YXQGTXTSDXSILLDKKAQXAFIEXLEEGGPSSGAPPPSGTGE
modifications: synthetic construct; SITE 2: note = 2-Aminoisobutyric Acid; SITE 6: note = alpha-methyl-2-fluoro-L-phenylalanine; SITE 10: note = 3-(4-Pyridyl)-L-alanine; SITE 17: note = Lysine is chemically modified through conjugation of the epsilon-amino group of the Lysine side chain with (2-[2-(2-Amino-ethoxy))
Regarding B13, the Relative cAMP EC50 with hGLP-1R stood at 0.27 nM; in assay [1] it was 1.76 nM; in assay [2] it was 0.0145 nM.

B14: Example 668 (SEQ ID NO: 674) (peptide)
chain: YXQGTXTSDXSILLDKKAQXAFIEXLEEGGPSSGAPPPSGGGE
modifications: synthetic construct; SITE 2: note = 2-Aminoisobutyric Acid; SITE 6: note = alpha-methyl-2-fluoro-L-phenylalanine; SITE 10: note = 3-(4-Pyridyl)-L-alanine; SITE 17: note = Lysine is chemically modified through conjugation of the epsilon-amino group of the Lysine side chain with (gamma-Glu)2-CO-(CH2)1
Turning to B14, the Relative cAMP EC50 with hGLP-1R was determined as 0.325 nM; in assay [1] it was 2.03 nM; in assay [2], 0.0198 nM.

B15: Example 667 (SEQ ID NO: 673) (peptide)
chain: YXQGTXTSDXSILLDKKAQXAFIEXLEEGGPSSGAPPPSGEGE
modifications: synthetic construct; SITE 2: note = 2-Aminoisobutyric Acid; SITE 6: note = alpha-methyl-2-fluoro-L-phenylalanine; SITE 10: note = 3-(4-Pyridyl)-L-alanine; SITE 17: note = Lysine is chemically modified through conjugation of the epsilon-amino group of the Lysine side chain with (gamma-Glu)2-CO-(CH2)1
Turning to B15, the Relative cAMP EC50 in the assay with hGLP-1R came out at 0.42 nM; in assay [1], 2.34 nM; in assay [2], 0.0217 nM.
